No end group written: not given here.

Data on three molecules can be found in US7754689B2, “Finger-1 peptide analogs of the TGF-β superfamily” (Wyeth LLC, priority 2006, dated 2010).

One test has as its target T1, BMP-3 (Homo sapiens, UniProt P12645).
T1 construct: a propeptide fragment copurifies along with the mature protein; made in house; host or cells: CHO cells (conditioned medium)
T1 sequence (P12645 363-472): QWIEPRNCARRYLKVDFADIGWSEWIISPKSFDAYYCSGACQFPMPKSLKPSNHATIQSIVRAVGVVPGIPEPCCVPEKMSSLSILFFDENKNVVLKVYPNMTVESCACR
Put plainly: Affinity column chromatography, capture and elution of BMP-3. The settings on record: for capture of BMP-3 by column with immobilized ligand: CHO-conditioned media with 1.2 M NaCl (high salt) load; for elution of BMP-3 from column with immobilized ligand: washes, then gradient to 50 mM acetic acid pH 3, then 6M GuHCl. It is filed as binding. The protocol: (§1) BMP-12 was immobilized on NHS-activated Sepharose™ beads at a ratio of about 20 mg:4 mL and the resulting media combined with water or neutral saline buffer to prepare a column. CHO-conditioned media augmented with 1.2 M NaCl was loaded onto the column. In some cases, the media was preconcentrated with respect to BMP before loading. The column was washed with 15 CV (column volumes) of 1.2 M NaCl in 40 mM Na2HPO4 at pH 7.2, followed by 0.5 M arginine/0.5 M NaCl in 20 mM Tris at pH 7.5 (15 CV) and a low salt wash (50 mM ammonium acetate at pH 7, 15 CV). […] Finally, the column was eluted with 5CV of the acetic acid solution with 6M guanidine hydrochloride (GuHCl).
The eluate was analyzed using HPLC.
4 mL of the resulting resin (1.6×2.0 cm) was used to prepare a column. The column was loaded with BMP-3 and eluted as in Example 1.

For test [1], the target named is T2, BMP-12 (Homo sapiens, UniProt Q7Z4P5).
T2 sequence (Q7Z4P5 322-450): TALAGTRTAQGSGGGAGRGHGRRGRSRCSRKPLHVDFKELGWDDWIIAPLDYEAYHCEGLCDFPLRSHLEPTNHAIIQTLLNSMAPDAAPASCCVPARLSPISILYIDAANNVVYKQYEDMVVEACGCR
Put plainly: Affinity column chromatography, capture and elution of BMP-12. Format: binding. The note with it: for capture of BMP-12 by column with immobilized ligand: high salt / high ionic strength load; for elution of BMP-12 from column with immobilized ligand: washes, then gradient to 50 mM acetic acid pH 3, then 6M GuHCl. The protocol:
as §1
BMP-12 was loaded and eluted from a BMP-12 affinity column as in Example 1.
BMP-12 was purified using a column prepared with the BMP-12 wild type peptide described in Example 7.

A further test addresses T3, GDF-9 (Homo sapiens, UniProt O60383).
T3 sequence (O60383 320-454): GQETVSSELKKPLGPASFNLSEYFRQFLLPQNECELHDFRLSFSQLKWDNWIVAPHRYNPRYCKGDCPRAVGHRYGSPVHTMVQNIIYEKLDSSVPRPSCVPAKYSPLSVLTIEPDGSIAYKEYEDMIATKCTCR
Put plainly: Affinity column chromatography, capture and elution of GDF-9. Format: binding. As to the method:
as §1
A lower molecular weight contaminant was also present.

Test [2] has as its target T4, BMP-12 (UniProt Q7Z4P5 322-450, limits assumed).
T4 construct: also called BMP12/GDF7
T4 sequence (looked up): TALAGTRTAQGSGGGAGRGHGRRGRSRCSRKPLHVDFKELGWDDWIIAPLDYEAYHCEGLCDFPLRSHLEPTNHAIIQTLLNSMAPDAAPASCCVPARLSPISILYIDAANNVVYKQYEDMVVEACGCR
Put plainly: peptide resin, filter plate; load 6: 1M CHES pH 9.7. As to the method: (§2) The coupled resins, plus an unconjugated resin for use as a control, were suspended in 16% ethanol, 150 mM NaCl, and 20 mM Tris buffer at pH 7.5 at a 25% v/v ratio (e.g., 25% ethanol, 75% Tris buffer). A Tecan liquid-handling robot was employed to aliquot 200 μL of each slurry into one of eight rows of a 96 well polystyrene filter plate (0.45 μm hydrophilic filters, Whatman catalog number 770-1806). Spinning at 1200 g for 3 min removed the liquid phase, leaving 50 μL of wet resin on the filters. The resins were then equilibrated with the loading buffers listed in Table 6 (K is a coefficient characterizing the strength of protein binding to a particular resin in a particular buffer). […] The resins were loaded by transferring 150 μL from the load plate to the filter plate and then incubating 20 min on a shaking platform to facilitate binding. The filter plate was spun down and the filtrate collected in a 96 well UV plate. The protein concentration in the filtrate, or flow-through, was calculated as $(A280-A320)/1.3$. The filter plate was then washed with 150 μL of 100 mM acetic acid, followed by 150 μL of 4M guanidine-HCl and 50 mM sodium acetate at pH 4.0. The protein concentration was measured in the new filtrate as described above. […] Flow-through and acetic acid elution samples from column 4 of the plate (loaded with MES pH 6) were analyzed on a gel (FIG. 14).

The target of test [3] is T4, BMP-12. In words: peptide resin, filter plate; load 4: 25 mM MES pH 6.0. The protocol: as §2
Test [4] deals with T4, BMP-12. In words: peptide resin, filter plate; load 5: 25 mM HEPES pH 7.0. The protocol:
as §2

Test [5] addresses T4, BMP-12. Put plainly: peptide resin, filter plate; load 3: 25 mM Na Acetate pH 5.0. The protocol:
as §2

The target of test [6] is T4, BMP-12. Put plainly: peptide resin, filter plate; load 1: 50 mM Acetic Acid, 0.1 M NaCl, pH 2.9. The protocol: as §2
The target in test [7] is T4, BMP-12. Put plainly: peptide resin, filter plate; load 2: 50 mM Acetic Acid, 0.1 M NaCl, pH 4.0. As to the method: as §2
In test [8] the target is T4, BMP-12. Put plainly: peptide resin, filter plate; load 10: 50 mM Tris, 0.1 M NaCl, 40% MPD, pH 8.0. As to the method:
as §2

The target of test [9] is T4, BMP-12. Put plainly: peptide resin, filter plate; load 12: 50 mM Tris, 0.1 M NaCl, 20% MPD, pH 8.0. As to the method: as §2
In test [10] the target is T4, BMP-12. Put plainly: peptide resin, filter plate; load 11: 50 mM Tris, 0.25 M NaCl, 30% MPD, pH 8.0. The protocol:
as §2

Regarding KELGWDDWIIAPLDYEAYHCEGLC [SEQ ID NO: 2], in the test with BMP-3, the “capture of BMP-3 by column with immobilized ligand” value is reported as “effectively captured” and the “elution of BMP-3 from column with immobilized ligand” value is “eluted in acetic acid”. Further, the “effectiveness of immobilized ligand compared with the BMP-2 mutant” value in the test with BMP-3 (in general) is “less effective than the BMP-2 mutant”. In addition, in the test with BMP-12 [1], the “capture of BMP-12 by column with immobilized ligand” value is recorded as “effectively captured” and the “elution of BMP-12 from column with immobilized ligand” value is “eluted with acetic acid”.
Take SDVGWNDWIVAPPGYHAFYCHGEK [SEQ ID NO: 1]: in the test with BMP-3, the “capture of BMP-3 by column with immobilized ligand” value is given as “effectively captured” and the “elution of BMP-3 from column with immobilized ligand” value was “eluted, along with a propeptide fragment, in acetic acid”. Moreover, in the test with BMP-12 [1], the “capture of BMP-12 by column with immobilized ligand” value is given as “effectively captured” and the “elution of BMP-12 from column with immobilized ligand” value is given as “eluted with acetic acid”. Moreover, in the test with GDF-9, the “elution of GDF-9 from column with immobilized ligand” value was “eluted with both 500 mM arginine and acetic acid”. Also, the “capture of GDF-9 by column with immobilized ligand” value in the test with GDF-9 (high salt solution load) is “effectively captured”.

B1: BMP2 C-trunc_2 peptide 746 (peptide)
peptide: Ac-LYVSDVGWNDWIVK
modifications: not fully specified (residue 3); printed as Ac-LYV**SDVGWNDWIVK; also: ** after V3 not explained
Take B1: the “Flow-through K” value with BMP-12 [2] was -1; in the test with BMP-12 [3], 47; in the test with BMP-12 [4] it was 6; with BMP-12 [5], 18; with BMP-12 [6], 7; in the test with BMP-12 [7], 25. Further, the “Flow-through K” value in the test with BMP-12 [8], in the test with BMP-12 [9] and with BMP-12 [10] was 0 throughout. In addition, the Flow-through conc in the test with BMP-12 [2] was found to be 0.71 mg/mL; with BMP-12 [3], 0.029 mg/mL; in the test with BMP-12 [4], 0.162 mg/mL; in the test with BMP-12 [5], 0.07 mg/mL; with BMP-12 [6], 0.15 mg/mL; with BMP-12 [7], 0.052 mg/mL. Further, the Flow-through conc is 0.505 mg/mL with BMP-12 [8], 0.486 mg/mL with BMP-12 [9] and 0.515 mg/mL in the test with BMP-12 [10]. For the same molecule, the “100 mM HAc elution K” value with BMP-12 [3] came to 1; in the test with BMP-12 [4], 1; in the test with BMP-12 [5] it was 1; in the test with BMP-12 [6], 3; in the test with BMP-12 [7], 3. Moreover, the “100 mM HAc elution conc” value with BMP-12 [3] was 0.32 mg/mL; with BMP-12 [4], 0.249 mg/mL; with BMP-12 [5], 0.296 mg/mL; with BMP-12 [6], 0.154 mg/mL; with BMP-12 [7] it was 0.208 mg/mL. In addition, the “4M Gnd, 50 mM NaAc pH 4 Strip Conc” value with BMP-12 [3] worked out at 0.07 mg/ml; in the test with BMP-12 [4] it was 0.068 mg/ml; in the test with BMP-12 [5] it was 0.1 mg/ml; with BMP-12 [6], 0.135 mg/ml; with BMP-12 [7] it was 0.162 mg/ml.
